{"source": "paper PMC2713385", "about": "(Journal of molecular biology, 2009)", "key": {"[1]": {"target": "bacteriophage Sf6 gp26-like tail needle (bacteriophage Sf6)", "assay": "SDS-PAGE"}, "[2]": {"target": "bacteriophage Sf6 gp26-like tail needle (bacteriophage Sf6)", "assay": "AUC"}, "[3]": {"target": "bacteriophage HK620 gp26-like tail needle (bacteriophage HK620)", "assay": "SDS-PAGE"}, "[4]": {"target": "bacteriophage HK620 gp26-like tail needle (bacteriophage HK620)", "assay": "AUC"}, "[5]": {"target": "phage HS1 gp26-like tail needle (prophage HS1 of E. coli strain HS)", "assay": "SDS-PAGE"}, "[6]": {"target": "phage HS1 gp26-like tail needle (prophage HS1 of E. coli strain HS)", "assay": "AUC"}, "AUC": {"target": "the molecule itself", "assay": "AUC"}}}
{"molecule": "bacteriophage Sf6 gp26-like tail needle (natural protein)", "values": [{"measurement": "stoichiometry N", "setting": "[1]", "value": 3}, {"measurement": "stoichiometry N", "setting": "[2]", "value": 3}]}
{"molecule": "bacteriophage HK620 gp26-like tail needle (natural protein)", "values": [{"measurement": "stoichiometry N", "setting": "[3]", "value": 3}, {"measurement": "stoichiometry N", "setting": "[4]", "value": 3}]}
{"molecule": "phage HS1 gp26-like tail needle (natural protein)", "values": [{"measurement": "stoichiometry N", "setting": "[5]", "value": 3}, {"measurement": "stoichiometry N", "setting": "[6]", "value": 3}]}
{"molecule": "bacteriophage P22 tail needle gp26 (natural protein, UniProt P35837 1-233, looked up) MADPSLNNPVVIQATRLDASILPRNVFSKSYLLYVIAQGTDVGAIAGKANEAGQGAYDAQVKNDEQDVELADHEARIKQLRIDVDDHESRITANTKAITALNVRVTTAEGEIASLQTNVSALDGRVTTAENNISALQADYVSKTATTSQSLASPLNVTTSYSVGGKKVLGARQTGWTAATGTANKGVFDADLTFAVSDTYTQSEIQAIANALITERRRTKALEDALRAHGLID", "values": [{"measurement": "stoichiometry N", "setting": "AUC", "value": 3}]}
